Bridges are numbered along the chain shown (N, C = ends). Where no end group is shown, it is not given here. [ ]: non-standard residue; d: D form. The star is where a group is joined. Acetyl(2-(4-imidazolyl)) = O=C(Cc1c[nH]cn1)*; Aib = CC(C)(N)C(=O)O
T1: human GIP receptor (human, UniProt P48546 22-466)
T1 sequence (looked up): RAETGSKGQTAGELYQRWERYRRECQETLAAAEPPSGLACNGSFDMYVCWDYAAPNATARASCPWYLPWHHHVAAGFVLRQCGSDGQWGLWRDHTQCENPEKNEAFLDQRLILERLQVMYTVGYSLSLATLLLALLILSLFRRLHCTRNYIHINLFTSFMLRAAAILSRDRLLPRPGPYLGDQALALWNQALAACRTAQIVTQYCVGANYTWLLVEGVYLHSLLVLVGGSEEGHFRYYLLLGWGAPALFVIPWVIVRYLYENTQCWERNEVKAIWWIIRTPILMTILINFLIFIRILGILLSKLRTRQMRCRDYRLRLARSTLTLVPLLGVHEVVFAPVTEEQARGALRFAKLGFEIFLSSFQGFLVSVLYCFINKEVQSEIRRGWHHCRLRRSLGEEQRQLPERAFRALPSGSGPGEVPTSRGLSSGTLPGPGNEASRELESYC

B1: triple agonist of SEQ ID NO: 75 (peptide)
peptide: Y[Aib]QGTFTSDYSKYLDEKAAKEFVQWLLDHHPSSGQPPPSC
modifications: bridge 16-20
B2: triple agonist of SEQ ID NO: 66 (peptide)
peptide: Y[Aib]QGTFTSDYSKYLDECRAKDFVQWLLDHHPSSGQPPPS
modifications: bridge 16-20
B3: triple agonist of SEQ ID NO: 7 (peptide)
peptide: H[Aib]QGTFTSDVSKYLDGQAAKEFVAWLLKGC
B4: triple agonist of SEQ ID NO: 56 (peptide)
peptide: H[Aib]QGTFTSDYSKYLDEKRQKEFVNWLLAQC
modifications: bridge 16-20
B5: triple agonist of SEQ ID NO: 77 (peptide)
peptide: Y[Aib]QGTFTSDYSKYLDEKAAKDFVQWLLDHHPSSGQPPPSC
modifications: bridge 16-20
B6: triple agonist of SEQ ID NO: 72 (peptide)
peptide: Y[Aib]QGTFTSDCSKYLDERAAKDFVQWLLDHHPSSGQPPPS
modifications: bridge 16-20
B7: triple agonist of SEQ ID NO: 70 (peptide)
peptide: Y[Aib]QGTFTSDYSKCLDEKRAKDFVQWLLDHHPSSGQPPPS
modifications: bridge 16-20
B8: triple agonist of SEQ ID NO: 76 (peptide)
peptide: Y[Aib]QGTFTSDYSKYLDEKRAKDFVQWLLDHHPSSGQPPPSC
modifications: bridge 16-20
B9: triple agonist of SEQ ID NO: 78 (peptide)
peptide: H[Aib]QGTFTSDYSKYLDEKRQKEFVQWLLDTKC
modifications: bridge 16-20
B10: triple agonist of SEQ ID NO: 80 (peptide)
peptide: H[Aib]EGTFTSDYSIAMDEIHQKDFVDWLLAEKC
modifications: bridge 16-20
B11: triple agonist of SEQ ID NO: 74 (peptide)
peptide: [Acetyl(2-(4-imidazolyl))][Aib]QGTFTSDYSKCLDEKRAKEFVQWLLDHHPSSGQPPPS
modifications: bridge 16-20; not fully specified
B12: triple agonist of SEQ ID NO: 8 (peptide)
peptide: H[Aib]QGTFTSDVSKYLDGQAAQEFVAWLLKGC
B13: triple agonist of SEQ ID NO: 58 (peptide)
peptide: H[Aib]QGTFTSDYSKYLDEKRQKEFVQWLLNTKC
modifications: bridge 16-20
B14: triple agonist of SEQ ID NO: 68 (peptide)
peptide: Y[Aib]QGTFTSDYSKCLDEKAAKEFVQWLLDHHPSSGQPPPS
modifications: bridge 16-20
B15: triple agonist of SEQ ID NO: 67 (peptide)
peptide: Y[Aib]QGTFTSDYSKYLDECAAKDFVQWLLDHHPSSGQPPPS
modifications: bridge 16-20
B16: triple agonist of SEQ ID NO: 61 (peptide)
peptide: [Acetyl(2-(4-imidazolyl))][Aib]QGTFTSDYSIAMDEIACKDFVNWLLNTK
modifications: bridge 16-20; not fully specified
B17: triple agonist of SEQ ID NO: 79 (peptide)
peptide: H[Aib]EGTFTSDYSIAMDEIHQKDFVNWLLAQKC
modifications: bridge 16-20
B18: triple agonist of SEQ ID NO: 64 (peptide)
peptide: Y[Aib]QGTFTSDYSKYLDECAAKEFVQWLLDHHPSSGQPPPS
modifications: bridge 16-20
B19: triple agonist of SEQ ID NO: 59 (peptide)
peptide: [Acetyl(2-(4-imidazolyl))][Aib]QGTFTSDYSICMDEKHQKDFVNWLLNTK
modifications: bridge 16-20; not fully specified
B20: triple agonist of SEQ ID NO: 60 (peptide)
peptide: [Acetyl(2-(4-imidazolyl))][Aib]QGTFTSDYSIAMDEKHCKDFVNWLLNTK
modifications: bridge 16-20; not fully specified
B21: triple agonist of SEQ ID NO: 81 (peptide)
peptide: {Acetyl(2-(4-imidazolyl))}-[Aib]QGTFTSDYSKYLDEKRQKEFVQWLLNTC
modifications: bridge 15-19
B22: triple agonist of SEQ ID NO: 57 (peptide)
peptide: H[Aib]QGTFTSDYSIAMDEIHQKDFVNWLLNTC
modifications: bridge 16-20
B23: triple agonist of SEQ ID NO: 73 (peptide)
peptide: [Acetyl(2-(4-imidazolyl))][Aib]QGTFTSDYSKYLDECRAKEFVQWLLDHHPSSGQPPPS
modifications: bridge 16-20; not fully specified
B24: triple agonist of SEQ ID NO: 69 (peptide)
peptide: Y[Aib]QGTFTSDYSKCLDERAAKEFVQWLLDHHPSSGQPPPS
modifications: bridge 16-20
B25: triple agonist of SEQ ID NO: 63 (peptide)
peptide: [Acetyl(2-(4-imidazolyl))][Aib]QGTFTSDCSKYLDERAAQDFVQWLLDGGPSSGAPPPS
B26: triple agonist of SEQ ID NO: 82 (peptide)
peptide: {Acetyl(2-(4-imidazolyl))}-[Aib]QGTFTSDYSKYLDEKRQKEFVQWLLDTC
modifications: bridge 15-19
B27: triple agonist of SEQ ID NO: 65 (peptide)
peptide: H[Aib]QGTFTSDYSKCLDEKRAKEFVQWLLDHHPSSGQPPPS
modifications: bridge 16-20
B28: triple agonist of SEQ ID NO: 71 (peptide)
peptide: Y[Aib]QGTFTSDYSKYLDERACKDFVQWLLDHHPSSGQPPPS
modifications: bridge 16-20
B29: triple agonist of SEQ ID NO: 62 (peptide)
peptide: [Acetyl(2-(4-imidazolyl))][Aib]QGTFTSDKSKYLDERAAQDFVQWLLDGGPSSGAPPPS

target: T1, human GIP receptor; assay: cell-based or functional assay

Binder	In vitro activity relative to native peptide (%) vs. GIP [%]
B1	18
B2	17.2
B3	< 0.1
B4	0.8
B5	35.5
B6	1.6
B7	64.4
B8	11.7
B9	0.12
B10	0.1
B11	1
B12	< 0.1
B13	0.2
B14	107
B15	39.8
B16	2.8
B17	1.4
B18	92.9
B19	4
B20	8.2
B21	< 0.1
B22	0.3
B23	3
B24	62.8
B25	< 0.1
B26	< 0.1
B27	11.6
B28	94.7
B29	< 0.1

target: human GLP-1 receptor (human, UniProt P43220 24-463); assay: cell-based or functional assay

Binder	In vitro activity relative to native peptide (%) vs. GLP-1 [%]
B1	35.1
B2	15.8
B3	13.7
B4	57.9
B5	38.7
B6	11.5
B7	15.1
B8	10.3
B9	51
B10	8.1
B11	12.9
B12	14.2
B13	39.1
B14	27.9
B15	28.5
B16	59.8
B17	41.5
B18	64.6
B19	40.3
B20	106
B21	7.8
B22	11.7
B23	22.6
B24	24.3
B25	15.3
B26	9.5
B27	95.4
B28	90.1
B29	5.2

target: human GCG receptor (human, UniProt P47871 26-477); assay: cell-based or functional assay
Sequence (P47871 26-477): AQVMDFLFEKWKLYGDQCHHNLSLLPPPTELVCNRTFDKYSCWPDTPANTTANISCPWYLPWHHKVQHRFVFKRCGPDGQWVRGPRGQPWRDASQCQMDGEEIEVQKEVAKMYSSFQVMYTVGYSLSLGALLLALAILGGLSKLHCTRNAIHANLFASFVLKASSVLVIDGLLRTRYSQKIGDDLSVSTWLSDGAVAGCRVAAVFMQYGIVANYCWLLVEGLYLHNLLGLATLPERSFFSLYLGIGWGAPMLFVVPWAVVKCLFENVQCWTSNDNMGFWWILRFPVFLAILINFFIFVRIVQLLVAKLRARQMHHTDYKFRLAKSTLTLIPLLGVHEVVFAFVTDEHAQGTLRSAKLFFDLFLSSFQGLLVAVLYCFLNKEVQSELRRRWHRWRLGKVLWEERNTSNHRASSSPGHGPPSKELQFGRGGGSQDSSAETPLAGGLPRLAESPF

Binder	In vitro activity relative to native peptide (%) vs. Glucagon [%]
B1	8.5
B2	172
B3	< 0.1
B4	4.9
B5	12.2
B6	1
B7	71.3
B8	47.6
B9	14
B10	0
B11	0.9
B12	0.1
B13	2.6
B14	8.8
B15	46.2
B16	< 0.1
B17	4.9
B18	60.1
B19	< 0.1
B20	< 0.1
B21	0.3
B22	< 0.1
B23	5.4
B24	9.6
B25	< 0.1
B26	1.1
B27	25.2
B28	12.7
B29	< 0.1

Reference: patent US20230302148A1, “PHARMACEUTICAL COMPOSITION COMPRISING LONG-ACTING CONJUGATE OF TRIPLE GLUCAGON/GLP-1/GIP RECEPTOR AGONIST” (HANMI PHARM. CO., LTD., priority 2020, published 2023)
